Measured values from patent US7829082B2, “Catheter composition and uses thereof” (Genentech, Inc., priority 2001, dated 2010).
“And” between values parts separate entries of the source, which are not always exact repeats. Equal values may be shown once.

Tests used:
[1] = target: T1, in vitro clot consisting of plasminogen and fibrin (Homo sapiens, UniProt P00747+P02671+P02675+P02679); test: Clot lysis assay of tenecteplase; assay type: biochemical; conditions: for overall percent specific activity of the recovered protein: over 24 hours at ambient conditions; for Clot lysis (+cent): after centrifugation; for Clot lysis (−cent): before centrifugation
T1 construct: Plasminogen kept frozen at or below −60° C. until use; purchased Biocell (fibrinogen); Calbiochem (thrombin)
From the text: The assay works as follows: Reagents are substances added to a solution of another substance to participate in a chemical reaction. In this case, contents of boat 1 will react with contents of boat 2 to form a standardized clot. Thrombin (boat 2), when mixed with plasminogen and fibrinogen (boat 1), causes the conversion of fibrinogen to fibrin and forms a standardized in vitro clot consisting of plasminogen and fibrin. A test sample of t-PA is then exposed to the clot. T-PA causes the conversion of plasminogen to plasmin, and plasmin then breaks apart the fibrin strands. As the clot breaks apart, there is a change in the absorbance (light) characteristics. The absorbance is plotted versus time.
In such test, thrombin and fibrinogen are mixed together to produce fibrin; plasminogen and tenecteplase are mixed together to produce plasmin; and together the fibrin and plasmin lyse the clot. The test measures the effectiveness of tenecteplase to act with plasminogen to form plasmin and thus lyse the clot.
(§1) Tenecteplase (TNKASE™ variant of t-PA), obtained from Genentech, Inc. (e.g., U.S. Pat. No. 5,612,029) (50 mg/vial) was reconstituted to 5 mg/mL with 10 mL of SWFI. Using a 3 & 5 cc syringe and 22 G needle, 1, 2, and 5 mL of normal saline (NS) was removed from separate IV bags (500 mL NS, Baxter), in duplicates. The same volume was replaced with the reconstituted drug product to give a final tenecteplase concentration inside the bags of 0.01, 0.02, and 0.05 mg/mL. The bags were then mixed gently by inversions. A 10-mL aliquot of the diluted tenecteplase solution was sampled via the IV port with a 10-cc syringe and dispensed into two 5-cc clean clear glass vials (6 mL in one and the remaining in the other). The IV bags containing the diluted tenecteplase were placed on a bench top under normal fluorescent light at ambient conditions for 24 hours. Additional aliquots (10 mL each) from these IV bags were sampled after 8 and 24 hours of storage.
All the aliquots of tenecteplase were subjected to the clot lysis assay described above to determine the in vitro bioactivity of tenecteplase in these aliquots. The samples were diluted to two or three different concentrations within assay range (200-500 ng/mL) with the diluent. Tenecteplase was used as an internal reference. All values obtained were normalized to the tenecteplase reference material. The bioactivity was assayed by clot lysis before and after centrifugation.

[2] = pH of tenecteplase dilutions; assay type: physicochemical; conditions: for observed pH: over 24 hours of storage at ambient conditions
Description: as §1
The pH determination was performed using a RADIOMETER PHM 93™ pH meter and a microelectrode (MI-410™, Microelectrode, Inc.). The pH meter was standardized with pH 4.01 and 7.00 buffer standards prior to measurement at ambient conditions.

[3] = Tenecteplase concentration by RP-HPLC before and after centrifugation; assay type: physicochemical; conditions: for Conc. (+cent) by RP-HPLC: after centrifugation; for Conc. (−cent) by RP-HPLC: before centrifugation
Description: as §1
The clot lysis activity and protein concentrations (determined by RP-HPLC) were performed before and after centrifugation of each sample aliquot. This was to ensure that any precipitation that was not visible to the naked eye was removed prior to assay for more accurate interpretation of the results. […] At 0.01 mg/mL, the percent change in concentration was 57% immediately after dilution and increased to 71% after 24 hours. […] This observation can be explained, without being limited to any one theory, by a more pronounced protein adsorption at a lower concentration that usually occurs instantly and saturates with time.

[4] = targeted conc. 0.01 mg/mL in 0.9% NaCl IV bag, T = 0
[5] = targeted conc. 0.01 mg/mL in 0.9% NaCl IV bag, T = 8 hours ambient
[6] = targeted conc. 0.01 mg/mL in 0.9% NaCl IV bag, T = 24 hours ambient
[7] = targeted conc. 0.02 mg/mL in 0.9% NaCl IV bag, T = 0
[8] = targeted conc. 0.02 mg/mL in 0.9% NaCl IV bag, T = 8 hours ambient
[9] = targeted conc. 0.02 mg/mL in 0.9% NaCl IV bag, T = 24 hours ambient
[10] = targeted conc. 0.05 mg/mL in 0.9% NaCl IV bag, T = 0
[11] = targeted conc. 0.05 mg/mL in 0.9% NaCl IV bag, T = 8 hours ambient
[12] = targeted conc. 0.05 mg/mL in 0.9% NaCl IV bag, T = 24 hours ambient

T1 sequence (P00747 20-810 limits assumed): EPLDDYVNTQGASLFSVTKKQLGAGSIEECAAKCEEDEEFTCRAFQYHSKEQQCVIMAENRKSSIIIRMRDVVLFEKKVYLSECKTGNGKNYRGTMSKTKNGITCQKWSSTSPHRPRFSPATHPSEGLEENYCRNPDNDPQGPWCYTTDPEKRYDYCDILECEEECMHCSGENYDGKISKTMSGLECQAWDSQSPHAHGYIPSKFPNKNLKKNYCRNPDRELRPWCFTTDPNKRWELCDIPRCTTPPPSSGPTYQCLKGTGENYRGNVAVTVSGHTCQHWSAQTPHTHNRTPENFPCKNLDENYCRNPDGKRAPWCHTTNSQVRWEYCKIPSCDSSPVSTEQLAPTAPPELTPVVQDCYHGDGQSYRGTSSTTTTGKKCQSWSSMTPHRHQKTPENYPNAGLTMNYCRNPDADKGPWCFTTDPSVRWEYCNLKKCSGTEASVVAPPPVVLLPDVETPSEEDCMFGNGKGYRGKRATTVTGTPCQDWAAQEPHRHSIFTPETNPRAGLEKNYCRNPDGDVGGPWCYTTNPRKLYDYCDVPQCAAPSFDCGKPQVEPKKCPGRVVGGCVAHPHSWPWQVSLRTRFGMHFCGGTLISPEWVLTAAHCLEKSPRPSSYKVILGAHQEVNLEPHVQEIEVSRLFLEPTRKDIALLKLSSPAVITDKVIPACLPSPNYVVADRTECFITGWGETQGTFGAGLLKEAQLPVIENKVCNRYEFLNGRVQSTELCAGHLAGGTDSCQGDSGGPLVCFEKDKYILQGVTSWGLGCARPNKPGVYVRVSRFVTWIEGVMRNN
T1 sequence (P02671 36-629 limits assumed): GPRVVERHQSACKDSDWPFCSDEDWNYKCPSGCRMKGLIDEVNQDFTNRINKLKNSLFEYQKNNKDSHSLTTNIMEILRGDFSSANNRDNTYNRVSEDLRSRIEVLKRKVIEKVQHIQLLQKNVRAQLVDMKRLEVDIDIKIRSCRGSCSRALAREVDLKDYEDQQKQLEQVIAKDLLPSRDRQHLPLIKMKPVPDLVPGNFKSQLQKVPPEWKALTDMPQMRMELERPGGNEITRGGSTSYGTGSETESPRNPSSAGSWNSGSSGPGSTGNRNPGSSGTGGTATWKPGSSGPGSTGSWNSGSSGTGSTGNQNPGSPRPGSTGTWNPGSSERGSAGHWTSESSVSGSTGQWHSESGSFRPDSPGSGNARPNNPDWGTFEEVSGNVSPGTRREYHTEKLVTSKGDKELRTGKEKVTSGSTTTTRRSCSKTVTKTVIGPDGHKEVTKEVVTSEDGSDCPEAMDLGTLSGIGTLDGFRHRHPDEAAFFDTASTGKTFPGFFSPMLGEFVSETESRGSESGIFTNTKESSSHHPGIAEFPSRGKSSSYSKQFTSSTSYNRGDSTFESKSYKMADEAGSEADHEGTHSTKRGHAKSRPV
T1 sequence (P02675 45-491 limits assumed): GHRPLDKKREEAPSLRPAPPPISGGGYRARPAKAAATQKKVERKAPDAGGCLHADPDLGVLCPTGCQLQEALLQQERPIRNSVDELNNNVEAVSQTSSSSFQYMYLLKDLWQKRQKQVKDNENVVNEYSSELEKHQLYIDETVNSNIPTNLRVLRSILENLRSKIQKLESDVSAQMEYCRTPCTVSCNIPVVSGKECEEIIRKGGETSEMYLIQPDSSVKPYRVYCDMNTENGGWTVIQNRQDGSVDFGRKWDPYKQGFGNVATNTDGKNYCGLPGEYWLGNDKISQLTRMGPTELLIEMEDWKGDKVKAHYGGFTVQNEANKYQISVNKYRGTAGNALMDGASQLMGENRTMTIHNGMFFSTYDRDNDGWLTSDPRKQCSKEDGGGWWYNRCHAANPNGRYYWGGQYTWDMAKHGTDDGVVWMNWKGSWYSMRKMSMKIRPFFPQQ
T1 sequence (P02679 27-437 isoform P02679-2 limits assumed): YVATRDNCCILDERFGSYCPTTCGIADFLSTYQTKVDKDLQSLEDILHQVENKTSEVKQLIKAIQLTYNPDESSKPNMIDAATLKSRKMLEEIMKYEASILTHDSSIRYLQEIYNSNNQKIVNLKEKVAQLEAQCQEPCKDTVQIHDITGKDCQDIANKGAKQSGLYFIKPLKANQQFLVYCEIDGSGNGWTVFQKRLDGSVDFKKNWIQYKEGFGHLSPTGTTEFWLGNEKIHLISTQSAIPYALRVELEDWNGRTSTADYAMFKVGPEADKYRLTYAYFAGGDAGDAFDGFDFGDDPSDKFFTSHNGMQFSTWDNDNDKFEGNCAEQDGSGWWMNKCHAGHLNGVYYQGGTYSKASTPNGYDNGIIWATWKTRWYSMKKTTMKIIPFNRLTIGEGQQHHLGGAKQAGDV

B1: Tenecteplase: a t-PA variant designated T103N, N117Q, K296A, H297A,R298A,R299A available as TNKASE™ brand from Genentech, Inc.; diluted in 0.9% NaCl (protein, UniProt P00750 36-562, looked up, variant T103N N117Q K296A H297A R298A R299A)
Tissue-type plasminogen …: SYQVICRDEKTQMIYQQHQSWLRPVLRSNRVEYCWCNSGRAQCHSVPVKSCSEPRCFNGGTCQQALYFSDFVCQCPEGFAGKCCEIDTRATCYEDQGISYRGNWSTAESGAECTNWQSSALAQKPYSGRRPDAIRLGLGNHNYCRNPDRDSKPWCYVFKAGKYSSEFCSTPACSEGNSDCYFGNGSAYRGTHSLTESGASCLPWNSMILIGKVYTAQNPSAQALGLGKHNYCRNPDGDAKPWCHVLKNRRLTWEYCDVPSCSTCGLRQYSQPQFRIKGGLFADIASHPWQAAIFAAAAASPGERFLCGGILISSCWILSAAHCFQERFPPHHLTVILGRTYRVVPGEEEQKFEVEKYIVHKEFDDDTYDNDIALLQLKSDSSRCAQESSVVRTVCLPPADLQLPDWTECELSGYGKHEALSPFYSERLKEAHVRLYPSSRCTSQHLLNRTVTDNMLCAGDTRSGGPQANLHDACQGDSGGPLVCLNDGRMTLVGIISWGLGCGQKDVPGVYTKVTNYLDWIRDNMRP
[1]; 0.01 mg/mL
  overall percent specific activity of the recovered protein: ≥ 100%
[1]; 0.02 mg/mL
  overall percent specific activity of the recovered protein: ≥ 92%
[1]; 0.05 mg/mL
  overall percent specific activity of the recovered protein: ≥ 80%
[1]; diluted down to 0.01 mg/mL in normal saline
  Lytic activity in clot lysis effectiveness test: lytically active
[1]; diluted to 0.01, 0.02, and 0.05% mg/mL in 0.9% NaCl IV bags (500 mL), after 24 hours of storage at ambient conditions
  Lytic activity after storage: lytically active
[1]; [4]
  % Specific Activity: 100%
  Clot lysis (+cent): 0.004 mg/mL
  Clot lysis (−cent): 0.006 mg/mL
[1]; [5]
  % Specific Activity: 125% and 120%
  Clot lysis (+cent): 0.005 mg/mL and 0.006 mg/mL
  Clot lysis (−cent): 0.007 mg/mL and 0.008 mg/mL
[1]; [6]
  % Specific Activity: 100% and 120%
  Clot lysis (+cent): 0.005 mg/mL and 0.006 mg/mL
  Clot lysis (−cent): 0.007 mg/mL
[1]; [7]
  % Specific Activity: 92%
  Clot lysis (+cent): 0.012 mg/mL
  Clot lysis (−cent): 0.015 mg/mL
[1]; [8]
  % Specific Activity: 92%
  Clot lysis (+cent): 0.012 mg/mL
  Clot lysis (−cent): 0.015 mg/mL and 0.013 mg/mL
[1]; [9]
  % Specific Activity: 100% and 92%
  Clot lysis (+cent): 0.013 mg/mL and 0.012 mg/mL
  Clot lysis (−cent): 0.015 mg/mL and 0.016 mg/mL
[1]; [10]
  % Specific Activity: 82% and 78%
  Clot lysis (+cent): 0.037 mg/mL and 0.036 mg/mL
  Clot lysis (−cent): 0.040 mg/mL and 0.041 mg/mL
[1]; [11]
  % Specific Activity: 76% and 82%
  Clot lysis (+cent): 0.034 mg/mL and 0.037 mg/mL
  Clot lysis (−cent): 0.039 mg/mL
[1]; [12]
  % Specific Activity: 93% and 91%
  Clot lysis (+cent): 0.040 mg/mL
  Clot lysis (−cent): 0.043 mg/mL
[2]; 0.01 mg/mL in NS
  observed pH: 6.7-6.8
[2]; 0.02 mg/mL in NS
  observed pH: 6.8-6.9
[2]; 0.05 mg/mL in NS
  observed pH: 7.1-7.2
[2]; [4]
  pH: 6.70 and 6.73
[2]; [6]
  pH: 6.77 and 6.71
[2]; [7]
  pH: 6.93 and 6.83
[2]; [9]
  pH: 6.86 and 6.90
[2]; [10]
  pH: 7.12 and 7.15
[2]; [12]
  pH: 7.10 and 7.07
[3]; [4]
  % Change in Conc. (±cent): 57%
  Conc. (+cent) by RP-HPLC: 4000 ng/mL
  Conc. (−cent) by RP-HPLC: 7000 ng/mL
[3]; [5]
  % Change in Conc. (±cent): 57% and 63%
  Conc. (+cent) by RP-HPLC: 4000 ng/mL and 5000 ng/mL
  Conc. (−cent) by RP-HPLC: 7000 ng/mL and 8000 ng/mL
[3]; [6]
  % Change in Conc. (±cent): 71%
  Conc. (+cent) by RP-HPLC: 5000 ng/mL
  Conc. (−cent) by RP-HPLC: 7000 ng/mL
[3]; [7]
  % Change in Conc. (±cent): 76%
  Conc. (+cent) by RP-HPLC: 13000 ng/mL
  Conc. (−cent) by RP-HPLC: 17000 ng/mL
[3]; [8]
  % Change in Conc. (±cent): 81%
  Conc. (+cent) by RP-HPLC: 13000 ng/mL
  Conc. (−cent) by RP-HPLC: 16000 ng/mL
[3]; [9]
  % Change in Conc. (±cent): 81%
  Conc. (+cent) by RP-HPLC: 13000 ng/mL
  Conc. (−cent) by RP-HPLC: 16000 ng/mL
[3]; [10]
  % Change in Conc. (±cent): 94% and 98%
  Conc. (+cent) by RP-HPLC: 45000 ng/mL and 46000 ng/mL
  Conc. (−cent) by RP-HPLC: 48000 ng/mL and 47000 ng/mL
[3]; [11]
  % Change in Conc. (±cent): 96%
  Conc. (+cent) by RP-HPLC: 45000 ng/mL
  Conc. (−cent) by RP-HPLC: 47000 ng/mL
[3]; [12]
  % Change in Conc. (±cent): 90% and 96%
  Conc. (+cent) by RP-HPLC: 43000 ng/mL and 44000 ng/mL
  Conc. (−cent) by RP-HPLC: 48000 ng/mL and 46000 ng/mL
